Test results taken from the supplement of paper PMC12042874.
± gives the uncertainty stated by the source.

Assay: amyloid nucleation score (Sup35N fusion, yeast selection) (log enrichment); library NNK2; higher = more nucleation; inactive = no reads after selection
Method in brief: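 In psi-negative yeast, Sup35N fusions carrying peptides of 20 random codons were induced with 100 μM copper sulfate for 24 hours. The cells then grew 7 days at 30°C on medium lacking adenine and uracil, and plasmid inserts from input and output were Illumina-sequenced, excluding sequences with under 100 input reads. Nucleation score is the DiMSum log enrichment of output over input reads, centred on the mode score of non-aggregating sequences.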

Substance | amyloid nucleation score
GYLILFTCNPLVFLVNRSGR | inactive
GYLSGYLRGSNILGHERYRY | -0.85 ± 0.32
GYRVDLIILKFDLWYEY | inactive
GYVGLGFNLTHAFGFGSLAG | 0.656 ± 0.23
GYYCDYSNTSRATRNMASKR | -0.719 ± 0.32
HACSMSIFEFRMCKKWSLLV | -0.848 ± 0.38
HAFRDIMYTVTRSWAKRWFY | 1.56 ± 0.11
HALGGDWHGLGGINS | -1.43 ± 0.55
HARHRGVCFWCVADSAPVYH | -0.012 ± 1.1
HATLNPSSLSATSSNPACRL | 0.171 ± 0.31
HCIMYSTLRHRVWSGRLDGS | 3.86 ± 0.089
HDIVRIALHYQQRVVCAWSC | 0.713 ± 0.24
HDKAHLRTCVVFRLESSGG | 4.29 ± 0.085
HFNSTNPTRLLVDEEFFYFE | -0.317 ± 0.5
HFSLAC | -0.91 ± 0.48
HGASSVAFNLLLSCVSWVGC | 7.468 ± 0.04
HGKRFYAECLIVFPIDKRGA | 0.098 ± 1
HGQISLRMWQVRR | 5.759 ± 0.052
HGTATCVAILMNRL | 6.35 ± 0.077
HGTNTRADYFCIYPHGNG | -0.281 ± 0.37
HIFGNRYWYSFCCFLLLPRR | 7.691 ± 0.072
HIIIFLWYRRHFSS | 1.78 ± 0.22
HIRFVDWNDTLIWVANGYI | 0.049 ± 0.8

Substance | amyloid nucleation score
HIRFYVLSRNRSASNISIFT | 3.09 ± 0.054
HISYVNSSRL | 4.05 ± 0.078
HKAFVAAVERWAEYLDADVS | -0.585 ± 0.63
HKRFKEGLSG | 0.047 ± 0.36
HLCKLSYI | 1.2 ± 0.33
HLFACSTYKSSHRVQVCTVI | -0.497 ± 1
HLLIRGVMSTKNRCSLLVIG | -0.582 ± 0.44
HLLRNLLPHKVGSHVHRWLR | inactive
HLNVKLKQVKDGQPCLMRLA | 1.67 ± 0.4
HLSTSGYVAFLKHLTLCKVL | -0.347 ± 1.1
HLTEFNNRRRLGTDLAGVGN | 0.109 ± 0.33
HLTESHFGWFGSDVSSQTFL | 3.42 ± 0.084
HMFPRWPFDVVKKDPTTTHL | 0.31 ± 0.41
HMSTVLLAVAFIALNFPSVE | -0.373 ± 1
HNGVIVIDCWRRKFHPNVIS | -0.922 ± 1
HNLEWKNRNQTWSSLTPIVW | 0.384 ± 0.44
HNVEGRDRVVLMFSIKCCML | 5.92 ± 0.061
HNVYMVFYFAFFSPFMIRYI | 3.44 ± 0.088
HNYIWARTRSRGRPMYSVPA | 0.798 ± 0.33
HNYMLVILHRDSPNLNLGHS | 3.94 ± 0.12
HPMLLMKNARG | -0.086 ± 0.27
HPRTPGLVIEDKKNLFLVWR | 5.22 ± 0.057
HPTLEPGKHYLRVSKSNTSR | 0.404 ± 0.26

Substance | amyloid nucleation score
HQAWSCSTVGFDLAVVNFAD | -0.197 ± 0.43
HQFYHFAEENN | -0.249 ± 1
HQLPVHEPYEYWLQQGSNCP | 0.353 ± 0.56
HQRYSRLLIKKCYTSASVPC | -0.245 ± 0.62
HRASRMCGINLARPTVMVVT | 1.9 ± 0.12
HRDGLPVVTL | 0.034 ± 1.1
HRLVGTC | 1.86 ± 0.21
HRMRVSIGATYVTALYQVKD | 3.18 ± 0.095
HRNNQMQCVFAFLW | 7.199 ± 0.053
HRRCMFQNTAMRHRQWDA | 0.841 ± 0.44
HRTGWKIFVSW | 0.732 ± 0.17
HRTVRFP | inactive
HSFLPRGHVADYNKLPVWSV | -0.707 ± 0.61
HSGFADFGRMEMIRDPTGRD | 1.96 ± 0.15
HSMQSVPKWKL | 1.86 ± 0.25
HSMSYFDYAIRLDRVGDVIS | 0.339 ± 0.38
HSRLLCWANVDLERFSEWSG | 1.46 ± 0.23
HSTIAVSCY | 0.219 ± 1
HSWVFLWRGNCSFWRDSFKV | inactive
HSYITG | 0.018 ± 0.19
HTFITVPASGRAATLCTSED | 1.14 ± 0.12
HTRLHKGIQRVEIGSMNGK | -0.637 ± 1.1
HTSFIMYMYHSRIWHGMYQT | inactive
